The values that follow come from publication PMC8385042.

The stoichiometry N is the number of molecules, sites or subunits per partner or assembly.

The target of the experiment is TIR domain of Toll-like receptor 1 (TLR1-TIR), residues 625-786 of human TLR1 (human) (UniProt Q15399). As to the kind of experiment: dynamic light scattering; 100 uM TLR1-TIR, 10 °C, cytoplasm-like buffer, threefold molar excess of ZnCl2 (1:3 protein to metal).

In turn, “TIR domain of Toll-like receptor 1 (TLR1-TIR), residues 625-786 of human TLR1 (from UniProt Q15399 625-786) (domain or fragment)” displayed a stoichiometry N of 5.
